Experimental data published in patent publication US20230235004A1 (published 2023).
Like-named read-outs stand apart in the source and are kept apart here.

T1: human MAdCAM protein (human, UniProt Q13477 19-317, limits assumed)
T1 construct: also called soluble monomeric human MAdCAM; recombinant human MAdCAM
T1 sequence (looked up): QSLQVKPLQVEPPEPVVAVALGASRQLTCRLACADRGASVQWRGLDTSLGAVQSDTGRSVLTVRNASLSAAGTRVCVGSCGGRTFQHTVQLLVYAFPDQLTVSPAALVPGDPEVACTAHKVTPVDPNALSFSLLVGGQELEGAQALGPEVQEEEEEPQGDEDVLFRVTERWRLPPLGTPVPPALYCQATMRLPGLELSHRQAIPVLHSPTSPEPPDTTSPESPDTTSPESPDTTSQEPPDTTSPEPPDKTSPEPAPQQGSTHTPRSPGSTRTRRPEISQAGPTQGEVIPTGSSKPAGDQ

T2: recombinant mouse MAdCAM-1 (mouse, UniProt Q61826 22-364, limits assumed)
T2 construct: also called mMAdCAM-1
T2 sequence (looked up): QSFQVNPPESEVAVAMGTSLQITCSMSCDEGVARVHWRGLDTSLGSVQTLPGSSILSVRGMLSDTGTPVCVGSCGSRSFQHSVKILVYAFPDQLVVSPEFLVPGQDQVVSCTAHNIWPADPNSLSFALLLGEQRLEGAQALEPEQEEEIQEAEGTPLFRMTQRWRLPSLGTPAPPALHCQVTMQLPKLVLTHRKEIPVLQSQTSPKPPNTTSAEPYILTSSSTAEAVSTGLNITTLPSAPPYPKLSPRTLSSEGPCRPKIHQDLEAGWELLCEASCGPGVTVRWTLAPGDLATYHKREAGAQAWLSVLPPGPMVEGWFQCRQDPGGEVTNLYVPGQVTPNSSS

T3: human MAdCAM expressed on cells (human, UniProt Q13477 19-382)
T3 construct: whole, on cells
T3 sequence (looked up): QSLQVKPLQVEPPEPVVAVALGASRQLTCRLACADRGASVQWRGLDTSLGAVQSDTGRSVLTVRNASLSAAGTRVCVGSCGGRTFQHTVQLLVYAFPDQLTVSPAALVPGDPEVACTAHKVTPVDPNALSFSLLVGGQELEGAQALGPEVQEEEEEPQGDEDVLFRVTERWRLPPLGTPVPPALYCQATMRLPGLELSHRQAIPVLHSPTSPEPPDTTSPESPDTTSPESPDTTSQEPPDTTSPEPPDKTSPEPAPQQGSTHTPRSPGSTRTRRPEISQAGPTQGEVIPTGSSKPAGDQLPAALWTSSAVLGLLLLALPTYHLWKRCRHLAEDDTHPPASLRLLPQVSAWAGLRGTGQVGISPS

T4: mouse MAdCAM expressed on cells (mouse, UniProt Q61826 22-405)
T4 construct: whole, on cells
T4 sequence (looked up): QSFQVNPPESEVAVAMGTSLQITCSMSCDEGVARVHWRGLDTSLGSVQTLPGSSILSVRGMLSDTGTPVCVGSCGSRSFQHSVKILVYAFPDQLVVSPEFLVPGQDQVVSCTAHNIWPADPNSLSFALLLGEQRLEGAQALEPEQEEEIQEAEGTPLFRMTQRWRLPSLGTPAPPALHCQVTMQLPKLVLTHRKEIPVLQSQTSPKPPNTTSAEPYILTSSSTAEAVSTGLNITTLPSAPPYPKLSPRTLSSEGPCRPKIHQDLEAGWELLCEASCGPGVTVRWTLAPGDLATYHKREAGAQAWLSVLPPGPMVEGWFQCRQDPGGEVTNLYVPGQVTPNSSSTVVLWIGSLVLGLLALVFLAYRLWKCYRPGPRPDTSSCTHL

B1: MAdCAM Antibody Table 2 clone 17 (antibody, V domains shown)
VH: QVQLVQSGAEVKKPGSSVKVSCKASGYTFTDYHIHWVRQAPGQGLEWMGGIVPRSGSTTYAQKFQGRVTITADESTSTAYMELSSLRSEDTAVYYCAKDESSGWYYFDYWGQGTLVTVSS
VL: DIVMTQSPLSLPVTPGEPASISCRSSQSLLHSNGYNYLDWYLQKPGQSPQLLIYSAYNRASGVPDRFSGSGSGTDFTLKISRVEAEDVGVYYCMQALQTPLTFGQGTKVEIK
notes: IgG format
B2: MAdCAM Antibody Table 2 clone 74 (antibody, V domains shown)
VH: QVQLVQSGAEVKKPGASVKVSCKASGYTFTGYYMHWVRQAPGQGLEWMGIINPSGGNTKYAQKFQGRVTMTRDTSTSTVYMELSSLRSEDTAVYYCTTADYYYYMDVWGKGTTVTVSS
VL: DIQMTQSPSSLSASVGDRVTITCRASQGISNYLAWYQQKPGKAPKLLIYAASSLQSGVPSRFSGSGSGTDFTLTISSLQPEDFATYYCQQYYSNADFGQGTKVEIK
notes: IgG format
B3: MAdCAM Antibody Table 2 clone 79 (antibody, V domains shown)
VH: EVQLLESGGGLVKPGGSLRLSCAASGFTFDDYAMHWVRQAPGKGLEWVASITSSSAFIDYAASVKGRFTISRDDSKNTLYLQMNSLKTEDTAVYYCARERVDWNSYFDLWGRGTLVTVSS
VL: EIVMTQSPATLSVSPGERATLSCRASQGISNSYLAWYQQKPGQAPRLLIYGASTRATGIPARFSGSGSGTEFTLTISSLQSEDFAVYYCQQYYTYPPTFGPGTKVDIK
notes: IgG format
B4: MAdCAM Antibody Table 2 clone 22 (antibody, V domains shown)
VH: EVQLLESGGGLVQPGGSLRLSCAASGFTFDDYAMHWVRQAPGKGLEWVSGISWNSGSIGYADSVKGRFTISRDNSKNTLYLQMNSLRAEDTAVYYCAKDIVAAGHYYYGMDVWGQGTTVTVSS
VL: DIQMTQSPSSLSASVGDRVTITCQASQDISNYLNWYQQKPGKAPKLLIYDASNLETGVPSRFSGSGSGTDFTLTISSLQPEDFATYYCQQSYSTPLTFGGGTKVEIK
notes: IgG format
B5: MAdCAM Antibody Table 2 clone 23 (antibody, V domains shown)
VH: EVQLLESGGGLVQPGGSLRLSCAASGFTFDDYAMHWVRQAPGKGLEWVSYIDTSSSHLYYADSVKGRFTISRDNSKNTLYLQMNSLRAEDTAVYYCARDEAAAGYYGMDVWGQGTTVTVSS
VL: DIQMTQSPSSLSASVGDRVTITCQAGQDISNYLNWYQQKPGKAPKLLIYDASNLETGVPSRFSGSGSGTDFTLTISSLQPEDFATYYCQQTYSTPITFGQGTKLEIK
notes: IgG format
B6: MAdCAM Antibody Table 2 clone 8 (antibody, V domains shown)
VH: QVQLVQSGAEVKKPGASVKVSCKASGYTFTGYHIHWVRQAPGQGLEWMGIINPSGGSTIYAQKFQGRVTMTRDTSTSTVYMELSSLRSEDTAVYYCAKDWSSWYLGPFDYWGQGTLVTVSS
VL: DIQMTQSPSSLSASVGDRVTITCRASQNISSSLNWYQQKPGKAPKLLIYAASSLQSGVPSRFSGSGSGTDFTLTISSLQPEDFATYYCQQSYTTPYTFGQGTKVEIK
notes: IgG format
B7: MAdCAM Antibody Table 2 clone 65 (antibody, V domains shown)
VH: QVQLVQSGAEVKKPGASVKVSCKASGYTFTSYDINWVRQAPGQGLEWMGWMNPNSGNTGYAQKFQGRVTMTRDTSTSTVYMELSSLRSEDTAVYYCAKDSDYSNLLWDYWGQGTLVTVSS
VL: DIQMTQSPSSLSASVGDRVTITCRASQDITNDLGWYQQKPGKAPKLLIYQASSLESGVPSRFSGSGSGTDFTLTISSLQPEDFATYYCQQSYTIPLTFGQGTKVEIK
notes: IgG format
B8: MAdCAM Antibody Table 2 clone 75 (antibody, V domains shown)
VH: EVQLLESGGGLVQPGGSLRLSCAASGFTFSDFWMHWVRQAPGKGLEWISYISGDSGYTNYADSVKGRFTISRDNSKNTLYLQMNSLRAEDTAVYYCARDRPYYYYMDVWGKGTTVTVSS
VL: DIQMTQSPSSLSASVGDRVTITCRASQSVSRSLAWYQQKPGKAPKLLIYAASSLQSGVPSRFSGSGSGTDFTLTISSLQPEDFATYYCQQYKSYPVTFGQGTKVEIK
notes: IgG format
B9: MAdCAM Antibody Table 2 clone 11 (antibody, V domains shown)
VH: EVQLLESGGGLVQPGGSLRLSCAASGFTFSDYYMNWVRQAPGKGLEWVSVIGESGGSTYYADSVKGRFTISRDNSKNTLYLQMNSLRAEDTAVYYCAADPVSRWPKHGGGDYWGQGTLVTVSS
VL: DIQMTQSPSSLSASVGDRVTITCRASQGISSSLAWYQQKPGKAPKLLIYAASTLQSGVPSRFSGSGSGTDFTLTISSLQPEDFATYYCQQSYSTPWTFGQGTKVEIK
notes: IgG format
B10: MAdCAM Antibody Table 2 clone 20 (antibody, V domains shown)
VH: EVQLLESGGGLVQPGGSLRLSCAASGFTFSDSAMHWVRQAPGKGLEWVSAISGSGSTIYYADSVKGRFTISRDNSKNTLYLQMNSLRAEDTAVYYCVSDIAVAGHWYFDLWGRGTLVTVSS
VL: DIQMTQSPSSLSASVGDRVTITCRASQSISTFLNWYQQKPGKAPKLLIYAASRLEGGVPSRFSGSGSGTDFTLTISSLQPEDFATYYCQQANSFPLTFGPGTKVDIK
notes: IgG format
B11: MAdCAM Antibody Table 2 clone 24 (antibody, V domains shown)
VH: EVQLVESGGGLVKPGGSLRLSCAASGFTFSSYWMSWVRQAPGKGLEWVSRISSDGRITTYAAPVKGRFTISRDDSKNTLYLQMNSLKTEDTAVYYCARGTSYCTGGVCDIDYWGQGTLVTVSS
VL: DIQMTQSPSSLSASVGDRVTITCRASQSIGRNLNWYQQKPGKAPKLLIYSASNLQSGVPSRFSGSGSGTDFTLTISSLQPEDFATYYCQQSYSIPLTFGPGTKVDIK
notes: IgG format
B12: MAdCAM antibody Table 1 clone 61 (scFv)
scFv: EVQLLESGGGLVQPGGSLRLSCAASEFTFSNAWMSWVRQAPGKGLEWVASISSTSAYIDYADSVKGRFTISRDNSKNTLYLQMNSLRAEDTAVYYCAREVVGATTFDYWGQGTLVTVSSGGGGSGGGGSGGGGSGGGGSDIQMTQSPSSLSASVGDRVTITCRASQSISTWLAWYQQKPGKAPKLLIYAASSLQSGVPSRFSGSGSGTDFTLTISSLQPEDFATYYCQQANAFPPTFGQGTRLEIK
B13: MAdCAM Antibody Table 2 clone 46 (antibody, V domains shown)
VH: EVQLLESGGGLVQPGGSLRLSCAASGFSFSSYTMNWVRQAPGKGLEWVSFITSSSRTIYYADSVKGRFTISRDNSKNTLYLQMNSLRAEDTAVYYCARDRRGDYGDSWYFDLWGRGTLVTVSS
VL: EIVMTQSPATLSVSPGERATLSCRASQSVRNYLAWYQQKPGQAPRLLIYGASTRATGIPARFSGSGSGTEFTLTISSLQSEDFAVYYCQQYGSSPLTFGGGTKVEIK
notes: IgG format

How the values were obtained:
[1] = target: T1, human MAdCAM protein; test: Octet
[2] = target: T2, recombinant mouse MAdCAM-1; test: Octet
[3] = target: T3, human MAdCAM expressed on cells; test: cell binding
[4] = target: T4, mouse MAdCAM expressed on cells; test: cell binding
[5] = target: T1, human MAdCAM protein; test: Octet; remark: listed apart in the source
[6] = target: T3, human MAdCAM expressed on cells; test: cell binding; remark: listed apart in the source
[7] = target: T4, mouse MAdCAM expressed on cells; test: cell binding; remark: listed apart in the source

Binder	binding result [1]	binding result [2]	binding result [3]	binding result [4]	binding result [5]	binding result [6]	binding result [7]
B1	binds	no binding	binds	no binding			
B2	binds	no binding	binds	no binding			
B3	binds	binds	binds	binds			
B4	binds	no binding	binds	no binding			
B5	binds	no binding	binds	no binding			
B6		binds	binds	binds			
B7	binds	no binding	binds	no binding			
B8	binds	binds	binds	binds			
B9	binds	binds	binds	binds			
B10	binds	no binding	binds	no binding			
B11		no binding	binds	no binding			
B12					binds	binds	binds
B13	binds	no binding	binds	no binding			
